For the series, the system named is MS2 coat protein. Description: apparent KD of MS2 coat protein; designed switch direction (-1 OFF switch, 1 ON switch): -1; higher = weaker reporter binding. In outline:
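Designed RNA switches sharing common flanks were transcribed on Illumina chips by stalled E. coli RNA polymerase. They were titrated with SNAP-549-labelled MS2 coat protein, from 0.7 or 1.5 nM doubling to 3 µM, in Tris-HCl pH 7.5 buffer with KCl, MgCl2, BSA, DTT, tRNA and Tween-20. Titrations ran without input, with 200 uM small-molecule ligand, or with an oligonucleotide input. The apparent KD of each design is the median over its clusters, after curve-fitting of normalised cluster fluorescence.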

The mark [1] stands for this setting: Eterna round: R95, input ligand: FMN 200 uM.
Setting [2] is: Eterna round: R95, input ligand: microRNA oligo, concentration not stated.
Where [3] appears, read: Eterna round: R95, input ligand: none.
[4] abbreviates: input ligand: microRNA oligo, concentration not stated.

“AAGAGUGCAGGAUAUACGUGAUGGAGUAGGAUGAGAGAAGGACAUGAGGAUCACCCAUGUAGAAGGGCAGAGAG [JR_Exclu2_Sub059] (puzzle: Exclusion 2)”: the “apparent KD of MS2 coat protein” value under setting [1] is 28.7 nM, the “apparent KD of MS2 coat protein” value under setting [2] stood at 43.4 nM and the “apparent KD of MS2 coat protein” value under setting [3] is 31 nM.

“AAGCAGCGAGGAUAUGCUUGAGCGUGUCCUAGUUGAAAUAAACUUGAGGAUCACCCAAGUAGAAGGCGCAGCCC [Rivezaed] (Eterna round: R97, puzzle: Exclusion 2)”: the “apparent KD of MS2 coat protein” value is, setting by setting: (input ligand: FMN 200 uM) 135 nM; (input ligand: none) 49.1 nM.

As for “AAGCAGGUGUAGGCCGUCUACAUGAGGAUCACCCAUGUGCCUCAUCCACCCGGCACCCAAUAAAGCGGGCGCCGGGC [Teququ] (Eterna round: R96, puzzle: Sensor v2, turn-off variant)”, the “apparent KD of MS2 coat protein” value came to 113 nM (input ligand: FMN 200 uM), 65.3 nM under setting [4] and 103 nM (input ligand: none).

Take “AAGCCACAUGAGGAUCACCCAUGUUAGGAUAUACGCAUGCAGACACGCACGGAUGCAAGUAGAAGGAACCAUGC [Design #5] (Eterna round: R97, puzzle: Exclusion 1)”: the “apparent KD of MS2 coat protein” value was 16.8 nM (input ligand: FMN 200 uM) and 15.9 nM (input ligand: none).

On to “AAGCUAUCUGUAGGAUAUACAACUGAUCUCGAGGUAGAAGGACAUCCAGUUACGCCAACAUGAGGAUCACCCAUGUGGAUCUUG [Eternabot solution 39] (Eterna round: R96, puzzle: Exclusion NG 1)”, for which the “apparent KD of MS2 coat protein” value was 15.2 nM (input ligand: FMN 200 uM), 12.9 nM under setting [4] and 18.4 nM (input ligand: none).

As to “AAGGCCUGAGGAUAUCAGAGUCUAAACAUGAGGAUCACCCAUGUGAACCUGGUCAGUCUGUGAGAAGGUAGUGCUC [Tequat] (puzzle: Exclusion 5)”, the “apparent KD of MS2 coat protein” value was determined as 39.5 nM under setting [1], 39.8 nM under setting [2] and 57.3 nM under setting [3].

As to “AAGUACCGUCACGAUAGUGAUGGUACAACAAGCAAGUGAACAUGAGGAUCACCCAUGUCCUCAAUUGCUCGUCUUAU [Sensor 3 - 71] (puzzle: Sensor v3, turn-off variant 2)”, the “apparent KD of MS2 coat protein” value turned out to be 28.1 nM under setting [1], 62.1 nM under setting [2] and 28.5 nM under setting [3].

As for “AAGUACCGUCACGAUAGUGAUGGUACAACAAGCAGUGAUACAUGAGGAUCACCCAUGUCCUCAAUUGCUCGUCUUAU [Sensor 3 - 75] (puzzle: Sensor v3, turn-off variant 2)”, the “apparent KD of MS2 coat protein” value runs as follows: under setting [1], 133 nM; under setting [2], 307 nM; under setting [3], 157 nM.

Turning to “AAGUACCGUCACGAUAGUGAUGGUACAACAAGUAGUGAAACAUGAGGAUCACCCAUGUCCUCUUUUGCUCGUCUUAU [Sensor 3 - 88] (puzzle: Sensor v3, turn-off variant 2)”, the “apparent KD of MS2 coat protein” value was determined as 931 nM under setting [1], 54 nM under setting [2] and 969 nM under setting [3].

As for “AAGUACCGUCACGAUAGUGAUGGUACAACAAGUGAAUGUACAUGAGGAUCACCCAUGUCCUCUUUUGCUCGUCUUAU [Sensor 3 - 92] (puzzle: Sensor v3, turn-off variant 2)”, the “apparent KD of MS2 coat protein” value is, setting by setting: under setting [1], 151 nM; under setting [2], 30.9 nM; under setting [3], 184 nM.

On to “AAGUACUACAAGCUUAGGGACAUGAGGAUCACCCAUGUUCGUCUUAUUGAUCUAGGUACGCUGACGUACCUAGAUCU [Mat - Sensor v3 - turn-off var 1 - JL Mod - D9] (puzzle: Sensor v3, turn-off variant 1)”, for which the “apparent KD of MS2 coat protein” value by setting is: under setting [1], 15.2 nM; under setting [2], 58.6 nM; under setting [3], 13.2 nM.

For the sequence “AAGUAGAGCUAAGGAUAUAUAGAGUAGUAGAAGAUAGAAGGUAGAAGUAGAAGAUGAUGAUGAAGAUGAAGUAGAUGAAGUAGA [TEST1] (Eterna round: R96, puzzle: Exclusion NG 1)”, the “apparent KD of MS2 coat protein” value (input ligand: FMN 200 uM) stood at 24.7 nM, the “apparent KD of MS2 coat protein” value under setting [4] worked out at 209 nM and the “apparent KD of MS2 coat protein” value (input ligand: none) was 19.9 nM.

With “AAGUAGCAUGCAGGAUAUGGUAAUCGAACGUUACCAGAAGGGCAUGAGGAUCACCCAUGUUCUCAUUUGUAAGAACAGAUGUCU [Ex NG1 #7] (Eterna round: R96, puzzle: Exclusion NG 1)”, the “apparent KD of MS2 coat protein” value amounted to 251 nM (input ligand: FMN 200 uM), 110 nM under setting [4] and 94.4 nM (input ligand: none).

As to “AAGUAUAGAGGAUAUAGUAGGUACAACAUGAGGAUCACCCAUGUUCUUCAUAACGUAUUUCUAGAAGGCUGAUAAA [EX-5 Malc#27] (Eterna round: R96, puzzle: Exclusion 5)”, the “apparent KD of MS2 coat protein” value by setting is: (input ligand: FMN 200 uM) 356 nM; under setting [4], 135 nM; (input ligand: none) 126 nM.

On to “AAGUAUAGAGGAUAUAGUAGGUACAACAUGAGGAUCACCCAUGUUCUUCAUAACGUAUUUCUAGAAGGCUGAUAAA [EX-5 Malc#27] (puzzle: Exclusion 5)”, for which the “apparent KD of MS2 coat protein” value under setting [2] was 174 nM.

Take “AAGUAUAGAGGAUAUAGUAGUUACAACAUGAGGAUCACCCAUGUUCUUCAUAACGUAGAUCUAGAAGGCUGAUAAA [EX-5 Malc#29] (puzzle: Exclusion 5)”: the “apparent KD of MS2 coat protein” value reads like this: under setting [1], 145 nM; under setting [2], 114 nM; under setting [3], 140 nM.

Take “AAGUCACAGGGAGGAUAUGUGAAAGGAAGUGUAACAGAAGGCCCAACGUAGGGCGAGACAUGAGGAUCACCCAUGUAUAAAAGA [PowerStrip EXNG 1.16] (Eterna round: R96, puzzle: Exclusion NG 1)”: the “apparent KD of MS2 coat protein” value was 28.9 nM (input ligand: FMN 200 uM), 20.8 nM under setting [4] and 25.9 nM (input ligand: none).

As to “AAGUCUGGUGUAAGGAUAUUGUUAGACUUGGUGAGCAAGAAGGUACAUGAGGAUCACCCAUGUGGGAUACUAGC [Eternabot (Original) Solution 41] (Eterna round: R97, puzzle: Brourd's mod of Exclusion 4)”, the “apparent KD of MS2 coat protein” value runs as follows: (input ligand: FMN 200 uM) 40.5 nM; (input ligand: none) 40 nM.

On to “AAUAACAAGCAGAUCCUAAACAUGAGGAUCACCCAUGUGCUCGUCUUGUUGUACUAUCACUCGAAAGUGAUAGUACA (Eterna round: R97, puzzle: Sensor, turn-off variant 1)”, for which the “apparent KD of MS2 coat protein” value reads like this: (input ligand: FMN 200 uM) 90.1 nM; (input ligand: none) 104 nM.

On to “AAUAACAAGCCGAUCCUAAACAUGAGGAUCACCCAUGUGCUCGUCUUGUAAAGUACUAUCACGAAAGUGAUAGUACA (Eterna round: R96, puzzle: Sensor v3, turn-off variant 1)”, for which the “apparent KD of MS2 coat protein” value (input ligand: FMN 200 uM) was 18.1 nM, the “apparent KD of MS2 coat protein” value under setting [4] turned out to be 220 nM and the “apparent KD of MS2 coat protein” value (input ligand: none) came out at 19.3 nM.

As for “AAUAACAAGCCGAUCCUAAACAUGAGGAUCACCCAUGUGCUCGUCUUGUAAAGUACUAUCACGAAAGUGAUAGUACA (Eterna round: R97, puzzle: Sensor, turn-off variant 1)”, the “apparent KD of MS2 coat protein” value runs as follows: (input ligand: FMN 200 uM) 24.5 nM; (input ligand: none) 18 nM.

As for “AAUAACAAGCCGAUCCUAAACAUGAGGAUCACCCAUGUGCUCGUCUUGUAAAGUACUAUCACGAAAGUGAUAGUACA (puzzle: Sensor v3, turn-off variant 1)”, the “apparent KD of MS2 coat protein” value was 16.3 nM under setting [1], 345 nM under setting [2] and 14.5 nM under setting [3].

(Values after the supplement of paper PMC9170038.)
